Results from patent US20160195541A1.
Several values for one entry are separate records, joined by “and”; a condition that tells them apart may be missing. Equal values may be shown once. Values belong to the molecule of their own block, whether it stands above or below them.

Assays:
[1] = target: aggregated human IgG (aggregated Beriglobin, aggregated fraction isolated by size exclusion chromatography) (human); experiment: sigmoid logistic fit of FACS competition on Raji cells (FACS021): inhibition of aggregated IgG binding to cell FcγRIIB
[2] = target: aggregated human IgG (aggregated Beriglobin, aggregated fraction isolated by size exclusion chromatography) (human); experiment: FACS competition on Raji cells (FACS021), inhibition of aggregated IgG binding to cell FcγRIIB at 0.0625 µg/µL
[3] = target: aggregated human IgG (aggregated Beriglobin, aggregated fraction isolated by size exclusion chromatography) (human); experiment: apparent KA, Langmuir fit of FACS competition on Raji cells (FACS021)
[4] = target: aggregated human IgG (aggregated Beriglobin, aggregated fraction isolated by size exclusion chromatography) (human); experiment: apparent KD, Langmuir fit of FACS competition on Raji cells (FACS021)
[5] = target: aggregated human IgG (aggregated Beriglobin, aggregated fraction isolated by size exclusion chromatography) (human); experiment: FACS competition on Raji cells (FACS007), inhibition of aggregated IgG binding to cell FcγRIIB at 0.0156 µg/µL SM101
[6] = target: aggregated human IgG (aggregated Beriglobin, aggregated fraction isolated by size exclusion chromatography) (human); experiment: FACS competition on Raji cells, mean of 25 experiments
[7] = target: aggregated human IgG (aggregated Beriglobin, aggregated fraction isolated by size exclusion chromatography) (human); experiment: apparent KD, FACS competition on Raji cells, mean of 25 experiments
[8] = target: aggregated human IgG (aggregated Beriglobin, aggregated fraction isolated by size exclusion chromatography) (human); experiment: FACS competition on Raji cells (FACS007), inhibition of aggregated IgG binding to cell FcγRIIB at 0.5 µg/µL SM101
[9] = target: aggregated human IgG (aggregated Beriglobin, aggregated fraction isolated by size exclusion chromatography) (human); experiment: FACS competition on Raji cells (FACS007), inhibition of aggregated IgG binding to cell FcγRIIB at 0.125 µg/µL SM101
[10] = target: aggregated human IgG (aggregated Beriglobin, aggregated fraction isolated by size exclusion chromatography) (human); experiment: apparent KD, FACS competition on Raji cells, mean of tests #1-17 without #4 and #6
[11] = target: aggregated human IgG (aggregated Beriglobin, aggregated fraction isolated by size exclusion chromatography) (human); experiment: FACS competition on Raji cells (FACS007), inhibition of aggregated IgG binding to cell FcγRIIB at 0.03125 µg/µL SM101
[12] = target: aggregated human IgG (aggregated Beriglobin, aggregated fraction isolated by size exclusion chromatography) (human); experiment: FACS competition on Raji cells (FACS007), inhibition of aggregated IgG binding to cell FcγRIIB at 0.25 µg/µL SM101
[13] = target: aggregated human IgG (aggregated Beriglobin, aggregated fraction isolated by size exclusion chromatography) (human); experiment: apparent KD, FACS competition on Raji cells (Example 1), as told in the description
[14] = target: aggregated human IgG (aggregated Beriglobin, aggregated fraction isolated by size exclusion chromatography) (human); experiment: FACS competition on Raji cells (FACS007), inhibition of aggregated IgG binding to cell FcγRIIB at 0.0078 µg/µL SM101
[15] = target: aggregated human IgG (aggregated Beriglobin, aggregated fraction isolated by size exclusion chromatography) (human); experiment: apparent KD, FACS competition on Raji cells, mean of tests #18-25
[16] = target: aggregated human IgG (aggregated Beriglobin, aggregated fraction isolated by size exclusion chromatography) (human); experiment: apparent KD, Langmuir fit of FACS competition on Raji cells (FACS007)
[17] = target: aggregated human IgG (aggregated Beriglobin, aggregated fraction isolated by size exclusion chromatography) (human); experiment: FACS competition on Raji cells (FACS007), inhibition of aggregated IgG binding to cell FcγRIIB at 0.0625 µg/µL SM101
[18] = target: aggregated human IgG (aggregated Beriglobin, aggregated fraction isolated by size exclusion chromatography) (human); experiment: FACS competition on Raji cells (FACS021), inhibition of aggregated IgG binding to cell FcγRIIB at 0.03125 µg/µL
[19] = target: aggregated human IgG (aggregated Beriglobin, aggregated fraction isolated by size exclusion chromatography) (human); experiment: sigmoid logistic fit of FACS competition on Raji cells (FACS007): inhibition of aggregated IgG binding to cell FcγRIIB
[20] = target: aggregated human IgG (aggregated Beriglobin, aggregated fraction isolated by size exclusion chromatography) (human); experiment: apparent KA, Langmuir fit of FACS competition on Raji cells (FACS007)
[21] = target: aggregated human IgG (aggregated Beriglobin, aggregated fraction isolated by size exclusion chromatography) (human); experiment: FACS competition control on Raji cells: constant aggregated Beriglobin, CSA in place of SM101; bound aggregated IgG detected with anti-human IgG(H+L)-PE; interaction tested for blocking: aggregated IgG with membrane-bound FcγRIIB
[22] = SM101 investigational medicinal product

- IC50 [1]: 12.9 µg/mL and 16.2 µg/mL
- norm. Signal (% inhibition) [2, 22]: 89.6%
- norm. Signal (% inhibition) ([2]; SM101 reference standard): 87.3%
- Ka [3]: 1.35e+06 M⁻¹ and 1.11e+06 M⁻¹
- Kd [4]: 740 nM and 900 nM
- norm. Signal (% inhibition) [5]: 43%
- IC50 [6]: 10.6 µg/mL
- Kd [7]: 530 nM
- norm. Signal (% inhibition) [8]: 97.3%
- norm. Signal (% inhibition) [9]: 94.9%
- Kd [10]: 680 nM
- norm. Signal (% inhibition) [11]: 70.5%
- norm. Signal (% inhibition) [12]: 98.4%
- Kd [13]: 980 nM
- norm. Signal (% inhibition) [14]: 23.2%
- Kd [15]: 260 nM
- Kd [16]: 990 nM
- norm. Signal (% inhibition) [17]: 91.2%
- norm. Signal (% inhibition) [18, 22]: 75.7%
- norm. Signal (% inhibition) ([18]; SM101 reference standard): 75.9%
- IC50 [19]: 17.7 µg/mL
- Ka [20]: 1.02e+06 M⁻¹
Molecule: SM101 (soluble human FcγRIIB, sFcγRIIB) (from UniProt P31994 46-217) (receptor)

- Median PE-A of aggregated IgG bound to Raji cells at 0.0156 µg/µL CSA [21]: 3770
- Median PE-A of aggregated IgG bound to Raji cells at 0.03125 µg/µL CSA [21]: 3700
- Median PE-A of aggregated IgG bound to Raji cells at 0.0625 µg/µL CSA [21]: 3830
- Median PE-A of aggregated IgG bound to Raji cells at 0.125 µg/µL CSA [21]: 4140
- Median PE-A of aggregated IgG bound to Raji cells at 0.25 µg/µL CSA [21]: 4570
- Median PE-A of aggregated IgG bound to Raji cells at 0.5 µg/µL CSA [21]: 4940
- Median PE-A of aggregated IgG bound to Raji cells at the CSA concentration labelled 0'078 (0.0078 µg/µL by the series in legend paragraph 80) [21]: 4180
B1: chicken serum albumin (protein, UniProt P19121 24-615, looked up)
Albumin: FARDAEHKSEIAHRYNDLKEETFKAVAMITFAQYLQRCSYEGLSKLVKDVVDLAQKCVANEDAPECSKPLPSIILDEICQVEKLRDSYGAMADCCSKADPERNECFLSFKVSQPDFVQPYQRPASDVICQEYQDNRVSFLGHFIYSVARRHPFLYAPAILSFAVDFEHALQSCCKESDVGACLDTKEIVMREKAKGVSVKQQYFCGILKQFGDRVFQARQLIYLSQKYPKAPFSEVSKFVHDSIGVHKECCEGDMVECMDDMARMMSNLCSQQDVFSGKIKDCCEKPIVERSQCIMEAEFDEKPADLPSLVEKYIEDKEVCKSFEAGHDAFMAEFVYEYSRRHPEFSIQLIMRIAKGYESLLEKCCKTDNPAECYANAQEQLNQHIKETQDVVKTNCDLLHDHGEADFLKSILIRYTKKMPQVPTDLLLETGKKMTTIGTKCCQLGEDRRMACSEGYLSIVIHDTCRKQETTPINDNVSQCCSQLYANRRPCFTAMGVDTKYVPPPFNPDMFSFDEKLCSAPAEEREVGQMKLLINLIKRKPQMTEEQIKTIADGFTAMVDKCCKQSDINTCFGEEGANLIVQSRATLGIGA
